Drawing on publication PMC7587433, “A Giant Extracellular Matrix Binding Protein of Staphylococcus epidermidis Binds Surface-Immobilized Fibronectin via a Novel Mechanism” (mBio, 2020), this text covers Kd for 1 molecule.

The experiment addresses T1, rFN12-14 (recombinant fibronectin type III repeats 12 to 14).
T1 construct: fibronectin, type III repeats 12 to 14; Held by its His tag on Immobilizer Nickel-Chelate plates in the adherence assays; immobilised on a C1 sensor chip in SPR
The experiment in a line: SPR; Biacore T200, C1 sensor chip; rFN12-14 immobilised (~870 RU); rF-, rFG-repeat or multiple repeats in HBS-EP injected at 40 μl/min; double referencing. The settings on record: both partners purified.

B1: r5FG-repeats (recombinant Embp fragment, aa 6777 to 7406) (domain or fragment)
chain: ADQKLQDAKTDAKQQITNFTGLTEPQKQALENIINQQTSRANVAKQLSHAKFLNGKMEELKVAVAKASLVRQNSNYINEDVSEKEAYEQAIAKGQEIINSENNPTISSTDINRTIQEINDAEQNLHGDNKLRQAQEIAKNEIQNLDGLNSAQITKLIQDIGRTTTKPAVTQKLEEAKAINQAMQQLKQSIADKDATLNSSNYLNEDSEKKLAYDNAVSQAEQLINQLNDPTMDISNIQAITQKVIQAKDSLHGANKLAQNQADSNLIINQSTNLNDKQKQALNDLINHAQTKQQVAEIIAQANKLNNEMGTLKTLVEEQSNVHQQSKYINEDPQVQNIYNDSIQKGREILNGTTDDVLNNNKIADAIQNIHLTKNDLHGDQKLQKAQQDATNELNYLTNLNNSQRQSEHDEINSAPSRTEVSNDLNHAKALNEAMRQLENEVALENSVKKLSDFINEDEAAQNEYSNALQKAKDIINGVPSSTLDKATIEDALLELQNARESLHGEQKLQEAKNQAVAEIDNLQALNPGQVLAEKTLVNQASTKPEVQEALQKAKELNEAMKALKTEINKKEQIKADSRYVNADSGLQANYNSALNYGSQIIATTQPPELNKDVINRATQTIKTAENNLN
B1: the Kd (commonly the equilibrium constant for the complex coming apart) is 10 µM.
